Experimental data as given in paper doi:10.1101/524447.

Molecular target: Integrin β3 cytoplasmic tail peptide (human (from the printed UniProt ID))
Assay: SPR

Kd [µM] | Substance
8 | Syk N-terminal SH2 domain with the IA segment (N-SH2+IA) (domain or fragment)
25 | Syk C-terminal SH2 domain with the IA segment (IA-C-SH2) (domain or fragment)
3 | Syk tandem SH2 (tSH2) fragment, amino acids 9-264 (from UniProt P43405 9-264) (domain or fragment)
130 | Syk N-terminal SH2 domain alone (N-SH2) (domain or fragment)
